T1: human ASIC1 (human, UniProt P78348 1-528)
T1 sequence: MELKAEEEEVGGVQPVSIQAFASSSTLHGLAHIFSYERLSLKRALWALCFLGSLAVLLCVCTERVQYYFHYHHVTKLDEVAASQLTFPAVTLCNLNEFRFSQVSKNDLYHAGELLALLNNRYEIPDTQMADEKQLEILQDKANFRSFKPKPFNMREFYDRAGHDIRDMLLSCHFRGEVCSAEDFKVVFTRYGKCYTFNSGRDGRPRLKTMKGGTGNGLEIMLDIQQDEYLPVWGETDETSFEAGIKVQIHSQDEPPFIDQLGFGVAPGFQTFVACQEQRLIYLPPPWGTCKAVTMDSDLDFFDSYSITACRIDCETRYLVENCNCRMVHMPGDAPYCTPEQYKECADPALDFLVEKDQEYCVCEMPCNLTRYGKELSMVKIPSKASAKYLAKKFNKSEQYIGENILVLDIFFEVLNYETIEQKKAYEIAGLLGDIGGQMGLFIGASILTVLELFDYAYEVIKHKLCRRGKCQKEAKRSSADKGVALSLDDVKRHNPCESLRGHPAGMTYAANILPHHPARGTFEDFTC

T2: human ASIC1/ASIC3 channels (co-expressed human ASIC1a and human ASIC3) (human, UniProt Q9UHC3 1-531)
T2 construct: whole, on cells; 3T3 cells co-expressing both subunits; also called 3T3/hASIC1/3; 3T3-hASIC1/ASIC3
T2 sequence 1: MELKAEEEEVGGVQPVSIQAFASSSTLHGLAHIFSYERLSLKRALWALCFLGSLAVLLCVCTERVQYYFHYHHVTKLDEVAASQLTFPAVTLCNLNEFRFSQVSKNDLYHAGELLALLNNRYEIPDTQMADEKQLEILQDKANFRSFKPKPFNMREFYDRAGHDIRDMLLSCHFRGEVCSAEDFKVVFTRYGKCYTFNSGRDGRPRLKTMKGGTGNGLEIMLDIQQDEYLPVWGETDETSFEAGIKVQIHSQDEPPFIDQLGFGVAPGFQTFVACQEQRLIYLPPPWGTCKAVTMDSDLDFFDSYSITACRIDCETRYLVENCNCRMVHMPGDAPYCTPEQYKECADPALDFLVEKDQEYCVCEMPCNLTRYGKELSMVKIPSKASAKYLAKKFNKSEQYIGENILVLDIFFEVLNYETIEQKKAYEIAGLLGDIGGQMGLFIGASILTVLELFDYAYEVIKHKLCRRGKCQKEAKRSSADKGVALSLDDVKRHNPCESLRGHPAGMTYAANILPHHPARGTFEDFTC
T2 sequence 2: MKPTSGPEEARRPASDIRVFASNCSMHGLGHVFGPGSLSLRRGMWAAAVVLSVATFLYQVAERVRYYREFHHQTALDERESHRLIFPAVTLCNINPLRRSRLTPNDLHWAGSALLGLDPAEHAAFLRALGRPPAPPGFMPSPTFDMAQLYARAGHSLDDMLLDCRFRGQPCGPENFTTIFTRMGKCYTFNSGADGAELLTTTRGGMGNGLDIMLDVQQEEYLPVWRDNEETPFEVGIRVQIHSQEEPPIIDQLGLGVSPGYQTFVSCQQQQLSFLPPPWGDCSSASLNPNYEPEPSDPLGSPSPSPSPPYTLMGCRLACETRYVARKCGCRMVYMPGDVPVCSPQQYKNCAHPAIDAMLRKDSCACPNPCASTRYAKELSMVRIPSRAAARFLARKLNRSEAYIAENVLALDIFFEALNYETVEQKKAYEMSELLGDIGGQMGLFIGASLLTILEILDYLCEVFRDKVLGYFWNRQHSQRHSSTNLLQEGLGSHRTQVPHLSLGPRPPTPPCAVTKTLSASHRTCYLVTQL

T3: human ASIC3 (human, UniProt Q9UHC3 1-531)
T3 construct: whole, on cells; Expressed on 3T3 cells (3T3/hASIC3) or HEK293 cells (HEK/hASIC3-QCells); also called hASIC3
T3 sequence (looked up): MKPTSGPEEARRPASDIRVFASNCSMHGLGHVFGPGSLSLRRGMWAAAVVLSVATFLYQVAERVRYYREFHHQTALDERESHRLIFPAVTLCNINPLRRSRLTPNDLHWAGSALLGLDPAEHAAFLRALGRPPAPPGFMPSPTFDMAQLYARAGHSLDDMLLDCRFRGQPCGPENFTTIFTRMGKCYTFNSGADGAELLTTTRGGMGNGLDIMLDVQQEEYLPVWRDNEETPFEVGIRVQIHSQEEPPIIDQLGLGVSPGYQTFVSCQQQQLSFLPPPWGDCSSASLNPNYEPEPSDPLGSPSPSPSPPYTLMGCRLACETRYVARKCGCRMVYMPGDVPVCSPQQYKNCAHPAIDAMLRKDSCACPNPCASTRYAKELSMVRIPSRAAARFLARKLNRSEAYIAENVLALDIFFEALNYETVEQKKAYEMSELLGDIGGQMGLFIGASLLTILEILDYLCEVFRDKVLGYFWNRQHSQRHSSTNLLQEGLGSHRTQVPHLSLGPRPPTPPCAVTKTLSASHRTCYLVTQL


Tests used:
human ASIC1 [1] = target: T1, human ASIC1; assay: cell-based or functional assay
[2] = target: T2, human ASIC1/ASIC3 channels …; assay: FACS, 3T3/hASIC1/3 cells, 10 nM antibody
Excerpt: (§1) For these experiments, four cell lines were constructed: (a) a mouse fibroblast 3T3 cell line stably transfected to overexpress full length human ASIC3 (3T3/hASIC3; amino acids 1-531 of NCBI accession number NP_{—}004760.1), (b) a 3T3 cell line stably transfected to co-express full length human ASIC1a and human ASIC3 (3T3/hASIC1/3; amino acids 1-528 of NCBI accession number NP_{—}001086.2 and amino acids 1-531 of NCBI accession number NP_{—}004760.1), (c) […] a stably transfected 3T3 cell line expressing the full-length mouse ASIC3 channel (3T3/mASIC3; amino acids 1-530 of NCBI accession number NP_{—}892045.2), and (d) a 3T3 cell line stably transfected to co-express full length mouse ASIC1a and mouse ASIC3 (3T3/mASIC1/3; amino acids 1-526 of NCBI accession number NP_{—}033727 and amino acids 1-530 of NCBI accession number NP_{—}892045.2). Antibody binding was determined using flow cytometry (FACS).
(§2) To perform the FACS binding experiments, adherent cells were collected with cold Millipore Accutase 3-5 minutes, spun and resuspended in ice-cold FACS buffer (PBS, 2% HI-FBS and 0.09% Na-azide). Anti-ASIC1 antibody at final concentrations of 10 nM was added for 20-30 minutes on ice. Cells were washed with 900 μL ice-cold FACS buffer, spun, and resuspended in 100 μL ice-cold FACS buffer. A secondary antibody which recognizes human Fc (Jackson Immuno Research, #109-136-098) and is conjugated to allophycocyanin, was then added to the cell mixture at a final concentration of 2.5 ug/mL. After incubating for 20 minutes on ice, the cells were washed and resuspended in FACS buffer, then sorted and analyzed on a flow cytometer (FACSCanto II, BD Biosciences, San Jose, Calif.) to determine relative binding by the candidate antibodies to the tested cell lines. Histograms of cells stained with anti-ASIC1 antibodies were compared with those of cells stained with secondary antibody alone. Percentage of ASIC1 signal over secondary antibody alone was calculated using FlowJo software (Tree Star, Ashland, Oreg.).

human ASIC3 [3] = target: T3, human ASIC3; assay: FACS, 3T3/hASIC3 cells
Excerpt: as §1, §2

human ASIC1 [4] = target: T1, human ASIC1; assay: FACS titration, 3T3/hASIC1 cells
Method: To perform the FACS binding experiments, adherent cells were collected using 1 mM EDTA in PBS, then washed, and re-suspended in cold PBS containing 5% FBS. For each binding experiment, each anti-ASIC1 antibody ([…] or ND7 cells) was added to 250,000 cells in 500 μL of PBS with 5% FBS. After incubation for 20 minutes at room temperature, a secondary antibody which recognizes human Fc (Cat. No. 109-136-098, Jackson ImmunoResearch Laboratories, Inc., West Grove, Pa.) or mouse Fc (Cat. No. 550826, BD Biosciences, San Jose, Calif.) and is conjugated to allophycocyanin, was then added to the cell mixture at a final concentration of 13.3 nM. After incubating for 20 minutes on ice, the cells were washed and resuspended in PBS containing 5% FBS, then sorted and analyzed on a flow cytometer (FACSCalibur, BD Biosciences, San Jose, Calif.) to determine relative binding by the candidate antibodies to the tested cell lines. Histograms of cells stained with anti-ASIC1 antibodies were compared with those of cells stained with secondary antibody alone. Percentage of ASIC1 signal over secondary antibody alone was calculated using FlowJo software (Tree Star, Ashland, Oreg.).

human ASIC3 [5] = target: T3, human ASIC3; assay: FACS, 3T3/hASIC3 cells, 10 nM antibody
Excerpt: as §1, §2

human ASIC1 [6] = target: T1, human ASIC1; assay: cell-based or functional assay; remark: listed apart in the source

| Binder | FLIPR Dose Curve, pH 5.0 % Block (human ASIC1 [1]) [%] | FLIPR Dose Curve, pH 5.0 IC50 (human ASIC1 [1]) [nM] | FLIPR Dose Curve, pH 5.5 % Block (human ASIC1 [1]) [%] | FLIPR Dose Curve, pH 5.5 IC50 (human ASIC1 [1]) [nM] | binding result [2] | EC50 (human ASIC1 [4]) [nM] | binding result (human ASIC3 [5]) | Current inhibition (%) at 100 nM antibody, Q-Patch, pH 6.0 (human ASIC1 [6]) [%] | binding result (human ASIC3 [3]) |
| --- | --- | --- | --- | --- | --- | --- | --- | --- | --- |
| H3M6713N (antibody, V domains shown, Chimeric: human variable, mouse constant domains; H3M prefix marks the Fc, isotype not spelled out) VH: EELVLESGGGLVQPGGSLRLSCAASGFMFSTYAMSWVRQAPGKGLEWVSLISGRDGSTYYADSVKGRFTISRDISRNTLYLHLNSLRAEDTAVYYCAKDTAVVPGYGLDVWGQGTTVTVSS VL: DIQMTQSPATLSASVGDRVTITCRASQTISNWLAWYQQRPGKAPKLLIYKASSLETGVPSRFSGSGSGTEFTLTISSLQPDDFASYYCQQYNSYSWTFGQGTKVEIK | 23 |  | 63 | 0.2 | binds | 0.215 |  |  | no binding (tested: 10 nM; gated lower than 1%) |
| H1M6712N (antibody, mouse IgG1, V domains shown) VH: QVQLVQSGAEVKKPGASMKVSCKASGYTFTIYDINWVRQATGQGLEWMGWMNPRSGSTGYSQKFQGRVTMTRNTSINTAFMELSSLRSDDTAVYYCVRGQLVLGYWGQGTLVTVSS VL: not shown | 10 |  | 64 | 6 | binds | < 0.1 | binds | 0 |  |

Now from value to binder, other results behind:

| FLIPR Dose Curve, pH 5.0 % Block (human ASIC1 [1]) [%] | FLIPR Dose Curve, pH 5.0 IC50 (human ASIC1 [1]) [nM] | FLIPR Dose Curve, pH 5.5 % Block (human ASIC1 [1]) [%] | FLIPR Dose Curve, pH 5.5 IC50 (human ASIC1 [1]) [nM] | binding result [2] | EC50 (human ASIC1 [4]) [nM] | binding result (human ASIC3 [5]) | Current inhibition (%) at 100 nM antibody, Q-Patch, pH 6.0 (human ASIC1 [6]) [%] | Binder | binding result (human ASIC3 [3]) |
| --- | --- | --- | --- | --- | --- | --- | --- | --- | --- |
| 56 | 1 | 71 | 0.9 | binds | 0.853 |  |  | H3M6760N (antibody, V domains shown, Chimeric: human variable, mouse constant domains; H3M prefix marks the Fc, isotype not spelled out) VH: EDRVLESGGGLVQPGGSLRLSCAASGFMFSSYAMSWVRQAPGKGLEWVSLISGRDGNTYYADSVKGRFTISRDNSRNTLYLQLNSLRAEDTAVYYCAKDTAVVPGYGMDVWGQGTTVTVSS VL: DIQMTQSPSTLSASVGDRVTITCRASQSISNWLAWYQQRPGKAPKLLIYKASSLESGVPSRFSGSGSGTEFTLTISSLQPDDFASYYCQQYNSYSWTFGQGTKVEIK | no binding (tested: 10 nM; gated lower than 1%) |
|  |  |  |  | binds | 1.5 | binds | 0 | H4H6364P (antibody, human IgG4, V domains shown) VH: EVQLVESGGGLVQSGGSLRLSCAASGFTFSRYWMSWVRQAPGKGLEWVANIKQDGSEKDYVDSVKGRFTISRDNTKSSLFLQMNSLRAEDTAVYYCAKERWNWNFFDYWGQGTLVTVSS VL: not shown |  |
